Experimental data reported in patent CN106046162A (DONG ZHUMING BIOTECH CO LTD, dated 2016).

Columns and labels:
人PD-1-Fc重组蛋白(RD) [1] = molecular target: T1, 人PD-1-Fc重组蛋白(RD) (human, UniProt Q15116 21-167, limits assumed); assay: Biacore blocking assay, hPD-1-Fc on the chip, 2-fold dilutions of the antibody in 7 steps; blocks PD-1 binding to B7-H1
T1 construct: Bought recombinant protein (RD); also called hPD-1-Fc; hPD-1; not shown: Fc part of the bought fusion protein

人PD-1-Fc重组蛋白(RD) [2] = molecular target: T1, 人PD-1-Fc重组蛋白(RD); assay: ELISA, 3-fold dilutions of the antibody in 12 steps, goat anti-mouse IgG-Fc-HRP; the text prints the coat as hPD-L1-Fc but reports affinity for PD-1

T1 sequence (Q15116 21-167 limits assumed): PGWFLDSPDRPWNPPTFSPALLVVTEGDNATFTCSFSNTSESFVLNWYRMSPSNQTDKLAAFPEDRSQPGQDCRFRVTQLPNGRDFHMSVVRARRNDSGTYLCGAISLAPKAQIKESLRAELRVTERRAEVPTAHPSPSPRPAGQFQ

EC50 (人PD-1-Fc重组蛋白(RD) [1]): 64.4 nM
EC50 (人PD-1-Fc重组蛋白(RD) [2]): 1.07 nM
B1: 抗人PD-1单克隆抗体2-189-H-1 (antibody, V domains shown)
VH: QVQLKESGPGLVAPSQSLSITCTVSGFSLTTYGVSWVRQPPGKGLEWLGVIWGDGSTDYHSVLISRLSITKDISKSQVFLKLNSLQSDDTATYYCAQQGSRGDYWGQGTTLTVSS
VL: DVLLTQTPLSLPVSLGDQASISCRSSQTIVHSNGITYLEWYLQKPGQSPKALISKVSNRLSGVPDRFSGSGSGTDFTLKISRVEAEDLGVYYCFQGSHIPYTFGGGTKLEIK
notes: Mouse hybridoma antibody (CCTCC C2015160), purified on Protein A; also called 本抗体; hPD-1抗体
